Source: patent US20120276102A1 (Pfizer, published 2012)
Where a chain is given by its changes, count along the chain named.

B1: scFv H3 (scFv)
scFv: QVQLQESGPGLVKTSETLSLTCAVSGYSISSGYYWGWIRQPPGKGLEWIGSISHTGNTYYNPPLKSRVTISVDTSKNQFSLKLSSVTAADTAVYYCARFMGFGRPEYWGKGTLVTVSSGGGGSGGGGSGGGGSALSSELTQDPPVSVALGQTVTLTCQGDSLRTYYASWYQQKSGQAPILLLYGKHKRPSGIPDRFSGSTSGDTASLTITGAQAEDEADYYCNSRDSSGNPHVLFGGGTQLTVL
B2: scFv H5 (scFv)
scFv: B1 scFv with M100L
B3: scFv L15 (scFv)
scFv: B1 scFv with F99G, M100G, F102I, G103S, N223S, S224T, D226A, S227I, S228H
B4: scFv L18 (scFv)
scFv: B1 scFv with F99G, M100G, F102I, G103S, N223V, S224T, D226S, S227V, S228K
B5: scFv L8 (scFv)
scFv: B1 scFv with F99G, M100G, F102I, G103S, N223T, S224T, D226S, S227T, S228Q
B6: scFv L13 (scFv)
scFv: B1 scFv with F99G, M100G, F102I, G103S, N223V, S224T, D226N, S227R, S228Y
B7: scFv L14 (scFv)
scFv: B1 scFv with F99G, M100G, F102I, G103S, N223M, S224A, D226S, S227R, S228K
B8: scFv L1 (scFv)
scFv: B1 scFv with F99G, M100G, F102I, G103S, N223A, D226S, S227V
B9: scFv L20 (scFv)
scFv: B1 scFv with F99G, M100G, F102I, G103S, N223V, D226S, S227A, S228K
B10: scFv L25 (scFv)
scFv: B1 scFv with F99G, M100G, F102I, G103S, N223T, S224T, D226S, S227N, S228K
B11: scFv L16 (scFv)
scFv: B1 scFv with F99G, M100G, F102I, G103S, N223V, S224T, D226S, S227A, S228K
B12: scFv L19 (scFv)
scFv: B1 scFv with F99G, M100G, F102I, G103S, N223V, S224A, D226A, S227V, S228R
B13: scFv L6 (scFv)
scFv: B1 scFv with F99G, M100G, F102I, G103S, N223M, D226S, S227I, S228W
B14: scFv L2 (scFv)
scFv: B1 scFv with F99G, M100G, F102I, G103S, N223V, S224A, D226S, S227V, S228V
B15: scFv L5 (scFv)
scFv: B1 scFv with F99G, M100G, F102I, G103S, N223A, D226S, S228K
B16: scFv L21 (scFv)
scFv: B1 scFv with F99G, M100G, F102I, G103S, N223A, S224T, D226A, S227V, S228R
B17: scFv L3 (scFv)
scFv: B1 scFv with F99G, M100G, F102I, G103S, N223V, D226A, S227V, S228V
B18: scFv L17 (scFv)
scFv: B1 scFv with F99G, M100G, F102I, G103S, N223S, S224T, D226S, S227R, S228K
B19: scFv L9 (scFv)
scFv: B1 scFv with F99G, M100G, F102I, G103S, N223V, S224A, D226S, S227N, S228K
B20: scFv L12 (scFv)
scFv: B1 scFv with F99G, M100G, F102I, G103S, N223V, S224A, D226G, S227T, S228R
B21: scFv L11 (scFv)
scFv: B1 scFv with F99G, M100G, F102I, G103S, N223S, D226S, S227R, S228H
B22: scFv L24 (scFv)
scFv: B1 scFv with F99G, M100G, F102I, G103S, N223I, S224A, D226S, S227N, S228K
B23: scFv H4 (scFv)
scFv: B1 scFv with F99W, M100L
B24: scFv L4 (scFv)
scFv: B1 scFv with F99G, M100G, F102I, G103S, N223S, S224T, D226S, S228K
B25: scFv L10 (scFv)
scFv: B1 scFv with F99G, M100G, F102I, G103S, N223I, D226S, S227I, S228Y
B26: scFv H6 (scFv)
scFv: B1 scFv with M100F
B27: scFv L23 (scFv)
scFv: B1 scFv with F99G, M100G, F102I, G103S, N223S, S224A, D226S, S227V, S228R

The binders below were run against murine IL-21R expressed on cells (murine, UniProt Q9JHX3 20-529) (assay: cell-based or functional assay).

First: B1
Second: B2
The “IC50, Murine IL-21R-BaF3 Neutralization Assay” value of the first is 2.1-fold lower: 25.7 nM for the first, 53.7 nM for the second.

Compared with B3, B4 is 6.4-fold lower in “IC50, Murine IL-21R-BaF3 Neutralization Assay” value: 53.5 nM for the first, 8.34 nM for the second.

Compared with B5, B6 is 570-fold lower in “IC50, Murine IL-21R-BaF3 Neutralization Assay” value: 715 nM for the first, 1.25 nM for the second.

Compared with B7, B8 is 4.4-fold higher in “IC50, Murine IL-21R-BaF3 Neutralization Assay” value: 6.49 nM for the first, 28.8 nM for the second.

B9 and B10 are within 1.5-fold of each other in “IC50, Murine IL-21R-BaF3 Neutralization Assay” value: 15.4 nM for the first, 15.6 nM for the second.

First: B11
Second: B12
The “IC50, Murine IL-21R-BaF3 Neutralization Assay” value of the first is 2.9-fold lower: 4.71 nM for the first, 13.6 nM for the second.

First: B13
Second: B14
The “IC50, Murine IL-21R-BaF3 Neutralization Assay” value of the first is 8.3-fold lower: 0.29 nM for the first, 2.41 nM for the second.

First: B15
Second: B16
The “IC50, Murine IL-21R-BaF3 Neutralization Assay” value of the first is 4.2-fold lower: 38.5 nM for the first, 162 nM for the second.

Going from B17 to B18, the “IC50, Murine IL-21R-BaF3 Neutralization Assay” value falls from 13.8 nM to 2.66 nM (5.2-fold).

Compared with B19, B20 is 24-fold higher in “IC50, Murine IL-21R-BaF3 Neutralization Assay” value: 3.61 nM for the first, 87.8 nM for the second.

Going from B21 to B22, the “IC50, Murine IL-21R-BaF3 Neutralization Assay” value falls from 10 nM to 3.73 nM (2.7-fold).

Each binder was assayed against human IL-21R expressed on cells (human, UniProt Q9HBE5 20-538) (assay: cell-based or functional assay).
human IL-21R expressed on cells, sequence (Q9HBE5 20-538 limits assumed): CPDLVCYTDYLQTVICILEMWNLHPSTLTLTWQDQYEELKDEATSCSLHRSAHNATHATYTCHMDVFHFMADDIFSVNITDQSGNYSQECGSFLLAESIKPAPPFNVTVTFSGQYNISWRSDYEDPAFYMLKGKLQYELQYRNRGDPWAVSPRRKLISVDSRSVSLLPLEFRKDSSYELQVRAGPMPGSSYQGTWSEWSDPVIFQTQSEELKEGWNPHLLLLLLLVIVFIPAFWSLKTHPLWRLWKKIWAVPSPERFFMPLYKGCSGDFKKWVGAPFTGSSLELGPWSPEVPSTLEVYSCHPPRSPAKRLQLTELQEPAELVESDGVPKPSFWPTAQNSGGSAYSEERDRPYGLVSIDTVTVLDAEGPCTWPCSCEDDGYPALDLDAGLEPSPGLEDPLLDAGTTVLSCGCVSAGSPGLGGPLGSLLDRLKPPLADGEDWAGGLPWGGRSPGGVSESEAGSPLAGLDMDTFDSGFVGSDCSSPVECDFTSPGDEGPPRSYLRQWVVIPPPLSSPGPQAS

First: B1
Second: B23
The “IC50, Human IL-21R-BaF3 Neutralization Assay” value of the first is 2-fold higher: 7.7 nM for the first, 3.8 nM for the second.

Compared with B2, B24 is 3.8-fold lower in “IC50, Human IL-21R-BaF3 Neutralization Assay” value: 7.9 nM for the first, 2.1 nM for the second.

B3 and B4 are within 1.5-fold of each other in “IC50, Human IL-21R-BaF3 Neutralization Assay” value: 3.3 nM for the first, 3.7 nM for the second.

First: B5
Second: B6
The “IC50, Human IL-21R-BaF3 Neutralization Assay” value of the first is 2.7-fold lower: 4.1 nM for the first, 11 nM for the second.

B7 and B8 are within 1.5-fold of each other in “IC50, Human IL-21R-BaF3 Neutralization Assay” value: 3.2 nM for the first, 3.7 nM for the second.

First: B25
Second: B9
The “IC50, Human IL-21R-BaF3 Neutralization Assay” value of the first is 4.9-fold higher: 15.1 nM for the first, 3.1 nM for the second.

Compared with B10, B26 is 3.7-fold higher in “IC50, Human IL-21R-BaF3 Neutralization Assay” value: 3.7 nM for the first, 13.8 nM for the second.

First: B27
Second: B11
The “IC50, Human IL-21R-BaF3 Neutralization Assay” value of the first is 2.5-fold lower: 1.5 nM for the first, 3.7 nM for the second.

B12 and B13 are within 1.5-fold of each other in “IC50, Human IL-21R-BaF3 Neutralization Assay” value: 4.5 nM for the first, 5.9 nM for the second.

B14 and B15 are within 1.5-fold of each other in “IC50, Human IL-21R-BaF3 Neutralization Assay” value: 3.1 nM for the first, 2.1 nM for the second.

Compared with B16, B17 is 2.9-fold higher in “IC50, Human IL-21R-BaF3 Neutralization Assay” value: 9.4 nM for the first, 27.6 nM for the second.

Compared with B18, B19 is 1.7-fold higher in “IC50, Human IL-21R-BaF3 Neutralization Assay” value: 1.6 nM for the first, 2.8 nM for the second.

Compared with B20, B21 is 1.6-fold higher in “IC50, Human IL-21R-BaF3 Neutralization Assay” value: 2.6 nM for the first, 4.2 nM for the second.

In the case of B22, the “IC50, Human IL-21R-BaF3 Neutralization Assay” value is reported as 2.4 nM.

Going from B1 to B23, the “IC50, Human IL-21R-TF1 Neutralization Assay” value falls from 98.1 nM to 9.3 nM (11-fold).

Compared with B2, B24 is 3-fold lower in “IC50, Human IL-21R-TF1 Neutralization Assay” value: 178 nM for the first, roughly 60 nM for the second.

Going from B3 to B4, the “IC50, Human IL-21R-TF1 Neutralization Assay” value rises from 30.3 nM to 54.4 nM (1.8-fold).

Going from B5 to B6, the “IC50, Human IL-21R-TF1 Neutralization Assay” value rises from 51.3 nM to 257 nM (5-fold).

Going from B7 to B8, the “IC50, Human IL-21R-TF1 Neutralization Assay” value rises from 33.5 nM to roughly 55 nM (1.6-fold).

First: B25
Second: B9
The “IC50, Human IL-21R-TF1 Neutralization Assay” value of the first is 8.2-fold lower: 7 nM for the first, 57.5 nM for the second.

Compared with B10, B26 is 4.5-fold higher in “IC50, Human IL-21R-TF1 Neutralization Assay” value: 33.1 nM for the first, roughly 150 nM for the second.

Going from B27 to B11, the “IC50, Human IL-21R-TF1 Neutralization Assay” value rises from 15.3 nM to 67.4 nM (4.4-fold).

Compared with B12, B13 is 4.2-fold higher in “IC50, Human IL-21R-TF1 Neutralization Assay” value: 35.3 nM for the first, roughly 150 nM for the second.

Going from B14 to B15, the “IC50, Human IL-21R-TF1 Neutralization Assay” value falls from 37.5 nM to roughly 20 nM (1.9-fold).

Compared with B16, B17 is 14-fold lower in “IC50, Human IL-21R-TF1 Neutralization Assay” value: roughly 100 nM for the first, roughly 7 nM for the second.

Compared with B18, B19 is 2.2-fold lower in “IC50, Human IL-21R-TF1 Neutralization Assay” value: 60.3 nM for the first, 27.7 nM for the second.

B20 and B21 are within 1.5-fold of each other in “IC50, Human IL-21R-TF1 Neutralization Assay” value: 54.9 nM for the first, 38.3 nM for the second.

In the case of B22, the “IC50, Human IL-21R-TF1 Neutralization Assay” value is reported as 18.7 nM.

These binders were tested against T1, murine IL-21R extracellular domain His-Flag fusion protein (murine, UniProt Q9JHX3 20-237) (assay: competition ELISA; competitor plate-bound 18A5 IgG).
T1 construct: Biotinylated in the ELISAs; also called mIL-21R-H/F; murine IL-21R-H/F
Experimental: Blocked plates were washed 3× with PBS, and 50 μl/well of scFv/IL-21R mixtures were transferred to the appropriate plates and incubated for 1 hr at RT. Plates were washed 5× with PBS prior to the addition of a 1:6000 dilution of horseradish peroxidase-conjugated streptavidin (Southern Biotech, Birmingham, Ala.) secondary antibody to detect bound biotinylated mIL-21R-H/F. Plates were then incubated for 1 hr at RT and washed 7× with PBS. Signal was developed using 3,3′,5,5′-tetramethylbenzidine (TMB), the reaction stopped with H₂SO₄, and the absorbance read at 450 nm on an ENVISION™ plate reader (Perkin Elmer).

B1 and B2 are within 1.5-fold of each other in IC50: 14 nM for the first, 17 nM for the second.

First: B24
Second: B3
The IC50 of the first is 1.8-fold lower: 8 nM for the first, 14 nM for the second.

B4 and B5 are within 1.5-fold of each other in IC50: 8 nM for the first, 7 nM for the second.

B6 and B7 are within 1.5-fold of each other in IC50: 7 nM for the first, 6 nM for the second.

Compared with B8, B25 is 5.7-fold higher in IC50: 7 nM for the first, 40 nM for the second.

First: B9
Second: B10
The IC50 of the first is 1.8-fold lower: 5 nM for the first, 9 nM for the second.

B26 and B27 are within 1.5-fold of each other in IC50: 13 nM for the first, 12 nM for the second.

First: B11
Second: B12
The IC50 of the first is 2.5-fold lower: 6 nM for the first, 15 nM for the second.

B13 and B14 are within 1.5-fold of each other in IC50: 4 nM for the first, 5 nM for the second.

First: B15
Second: B16
The IC50 of the first is 4-fold lower: 7 nM for the first, 28 nM for the second.

Going from B17 to B18, the IC50 falls from 100 nM to 12 nM (8.3-fold).

B19 and B20 are within 1.5-fold of each other in IC50: 7 nM for the first, 8 nM for the second.

B21 and B22 are the same in IC50: 6 nM for the first, 6 nM for the second.
